Assay results from patent US20140178935A1 (AVEO PHARMACEUTICALS, published 2014).

How the values were obtained:
[1] = target: T1, recombinant human HGF (R&D Systems, Catalog No. 294-HGN-025) (human, UniProt P14210 32-728); assay: SPR, captured antibody, HGF injected, 25 C
T1 construct: Mature HGF is a disulfide-linked heterodimer of alpha and beta chain cut from one precursor; also called rhHGF (R&D Systems); rhHGF
Procedure: (§1) Mouse anti-human immunoglobulins (Jackson Labs, Catalog No. 209-005) were immobilized on carboxymethylated dextran CM4 sensor chips (BIAcore, Catalog No. BR-1006-68) by amine coupling (BIAcore, Catalog No. BR-1000-50) using a standard coupling protocol according to manufacturer's instructions. The analyses were performed at 25° C. using PBS (GIBCO, Catalog No. 14040-133) containing 0.05% surfactant P20 (BIAcore, Catalog No. BR-1000-54), and 2 mg/mL BSA (EMD, Catalog No. 2930).
(§2) The antibodies were captured in an individual flow cell at a flow rate of 10 μL/min. Injection time was variable for each antibody to yield approximately 20 RU of antibody captured for each cycle. […] The dissociation phase was monitored for 15 or 90 minutes, depending on concentration. The surface then was regenerated with 10 mM Glycine-HCl, pH 2.2 (BIAcore, Catalog No. BR-1003-54) injected for 3 minutes at a flow rate of 60 μL/min before another cycle was initiated.
Kinetic parameters were determined using the kinetic function of the BIAevalutation™ software with reference subtraction.

[2] = target: T1, recombinant human HGF (R&D Systems, …); assay: SPR, captured antibody, HGF injected, 25 C; remark: listed apart in the source
Procedure: as §1, with “209-005) or rabbit anti-mouse immunoglobulins (BIAcore, Catalog No. BR-1005-14)” for “209-005)”, “instructions. […]” for “instructions.”, “25° C. and 37°” for “25°”, “2930) as running buffer.” for “2930).”
as §2, with “[…].” for “μL/min.”, “surface of mouse anti-human immunoglobulins sensor chips was” for “surface”, “then” for “then was”, “initiated. The surface of rabbit anti-mouse immunoglobulins sensor chips was regenerated with 10 mM Glycine-HCl, pH 1.7 (BIAcore, Catalog No. BR-1003-54) injected for 3 minutes at a flow rate of 60 μL/min before another cycle was initiated.” for “initiated.”
Kinetic parameters were determined using the kinetic function of the BIAevaluation software with reference subtraction.

[3] = target: T1, recombinant human HGF (R&D Systems, …); assay: SPR (BIAcore T100), antibody captured on mouse anti-human immunoglobulin CM4 chip, HGF 1.88, 3.75 and 7.5 nM injected, 25 C; three independent experiments
Procedure: Antigen-binding affinity and kinetics of interaction were assessed by surface plasmon resonance technology using a BIAcore T100 instrument. Mouse anti-human immunoglobulins (Jackson ImmunoResearch Labs, 209-005-098) were immobilized on carboxymethylated dextran CM4 sensor chips (BIAcore, Catalog No. BR-1005-34) by amine coupling (BIAcore, Catalog No. BR-1000-50) using a standard coupling protocol according to manufacturer's recommendations. The analyses were performed at 25° C. using PBS (GIBCO, Catalog No. 14040-133) containing 0.05% surfactant P20 (BIAcore, Catalog No. BR-1000-54), 2 mg/mL BSA (EMD, Catalog No. 2930) and 10 mg/mL CM-Dextran Sodium salt (Fluka, Catalog No. 86524) as running buffer.
as §2, with “on” for “in an”, “2.0” for “2.2”, “BR-1003-55)” for “BR-1003-54)”, “initiated. […] Determination of kinetic parameters was achieved using the kinetic function of the BIAevalutation software with reference subtraction.” for “initiated.”

T1 sequence (P14210 32-728 limits assumed): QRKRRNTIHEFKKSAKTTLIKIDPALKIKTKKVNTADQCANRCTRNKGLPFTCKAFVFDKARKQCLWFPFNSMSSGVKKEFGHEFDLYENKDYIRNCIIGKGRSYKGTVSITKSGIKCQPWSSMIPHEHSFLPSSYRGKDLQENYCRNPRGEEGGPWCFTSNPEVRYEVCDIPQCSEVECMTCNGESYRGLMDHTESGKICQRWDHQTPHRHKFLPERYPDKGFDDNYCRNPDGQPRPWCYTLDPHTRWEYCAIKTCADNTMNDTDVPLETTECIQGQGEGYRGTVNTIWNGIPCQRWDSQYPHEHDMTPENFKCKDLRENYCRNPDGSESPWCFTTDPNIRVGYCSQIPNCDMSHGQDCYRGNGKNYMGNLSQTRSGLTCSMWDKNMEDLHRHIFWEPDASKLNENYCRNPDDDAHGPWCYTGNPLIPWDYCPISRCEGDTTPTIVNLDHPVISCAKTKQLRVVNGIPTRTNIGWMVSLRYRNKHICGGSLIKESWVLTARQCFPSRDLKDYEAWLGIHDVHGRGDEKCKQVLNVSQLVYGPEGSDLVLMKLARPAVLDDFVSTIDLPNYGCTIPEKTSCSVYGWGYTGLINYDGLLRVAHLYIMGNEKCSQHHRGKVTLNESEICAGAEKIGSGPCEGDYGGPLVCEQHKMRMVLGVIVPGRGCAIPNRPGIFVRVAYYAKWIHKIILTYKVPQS

B1: sh2B8-9 (G1m(17,1)) = hu2B8 Hv5-51.1 + IgG1 constant region (G1m(17,1) allotype) plus hu2B8 Kv1-39.1 + Kappa constant region (Km(3) allotype, allele 2) (antibody)
heavy: not shown
light: DIQMTQSPSSLSASVGDRVTITCKASENVVSYVSWYQQKPGKAPKLLIYGASNRNTGVPSRFSGSGSGTDFTLTISSLQPEDFATYYCGQSYNYPYTFGQGTKLEIKRTVAAPSVFIFPPSDEQLKSGTASVVCLLNNFYPREAKVQWKVDNALQSGNSQESVTEQDSKDSTYSLSSTLTLSKADYEKHKVYACEVTHQGLSSPVTKSFNRGEC
Q: How did the Kd [1] turn out when B1 was run?
A: 8.1 pM

Q: What about the koff [1] of the same binder?
A: 1.7e-05 s⁻¹

Q: And the kon [1]?
A: 2e+06 M⁻¹ s⁻¹

Q: What about the Kd [2] of the same binder?
A: 8.1 pM

Q: And the koff [2]?
A: 1.7e-05 s⁻¹

Q: And the kon [2]?
A: 2e+06 M⁻¹ s⁻¹

Q: What about the Kd [3] of the same binder?
A: 8.1 pM

Q: And the koff [3]?
A: 1.7e-05 s⁻¹

Q: What about the kon [3] of the same binder?
A: 2e+06 M⁻¹ s⁻¹
